Measurements: paper PMC9705753

Molecular target: Gal4 DNA-Binding Domain (DBD) linked to the LOV domain of WC-1 (N. crassa) (UniProt Q01371)
Test: two-hybrid; Y2H-like optogenetic switch (FUN-LOV variants) in S. cerevisiae BY4741 or 59A-EC1118; genome-integrated luciferase reporter under P_GAL1 or P_5XGAL1; constant blue light or a single 2-h blue-light pulse (466 nm, 24 umol m^-2 s^-1) compared with constant darkness; 25°C, SC medium with 1 mM luciferin

Sequence of UniProt Q01371 (Q01371 381-508): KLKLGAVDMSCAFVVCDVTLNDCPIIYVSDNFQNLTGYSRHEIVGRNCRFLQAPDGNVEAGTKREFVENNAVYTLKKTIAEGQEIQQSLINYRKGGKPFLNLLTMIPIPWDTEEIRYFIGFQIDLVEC

Q: How did the fold induction of luciferase expression (blue-light pulse / darkness), 59A-EC1118 strain, P 5XGAL1-Luc turn out when “Gal4-activation domain (AD) tethered to the LOV domain of VVD (from UniProt Q9C3Y6 1-186) (domain or fragment)” was run?
A: 982 fold
